The numbers were not newly measured in PMC3569056, which cites them from elsewhere.

The term pKa denotes the pH at which an ionisable group is half protonated.

In the series the target is Cys22 (UniProt position 23, FIKPTCPYCRR). Put plainly: chemical modification.

Consider “Glutaredoxin 1 (hGrx1, thioltransferase) (Homo sapiens)”, for which the pKa is 3.5.
